Experimental data reported in paper PMC8673838, “MCPH1 inhibits Condensin II during interphase by regulating its SMC2-Kleisin interface” (eLife, 2021).

What was measured:
[1] = biological target: condensin II pentamer (Homo sapiens, UniProt O95347;Q9NTJ3;Q6IBW4;P42695;Q86XI2 1-1197;1-1288;1-605;1-1498;1-1143); test: EMSA; with MBP control or without peptide; EMSA with 50 nM 5'-Cy5 50 bp dsDNA; EMSA buffer, salt, pH and temperature not given in the material; conditions: protein: recombinant; tags: Strep tag; copies: 1;1;1;1;1; label: 5' Cy5; blunt
[2] = biological target: T1, MCPH1 1-435-MBP (Homo sapiens, UniProt Q8NEM0 1-435); test: EMSA; 50 nM DNA; EMSA with 50 nM 5'-Cy5 50 bp dsDNA; EMSA buffer, salt, pH and temperature not given in the material; conditions: protein: recombinant; tags: N-term 6xHis, C-term MBP; label: 5' Cy5; blunt
T1 sequence: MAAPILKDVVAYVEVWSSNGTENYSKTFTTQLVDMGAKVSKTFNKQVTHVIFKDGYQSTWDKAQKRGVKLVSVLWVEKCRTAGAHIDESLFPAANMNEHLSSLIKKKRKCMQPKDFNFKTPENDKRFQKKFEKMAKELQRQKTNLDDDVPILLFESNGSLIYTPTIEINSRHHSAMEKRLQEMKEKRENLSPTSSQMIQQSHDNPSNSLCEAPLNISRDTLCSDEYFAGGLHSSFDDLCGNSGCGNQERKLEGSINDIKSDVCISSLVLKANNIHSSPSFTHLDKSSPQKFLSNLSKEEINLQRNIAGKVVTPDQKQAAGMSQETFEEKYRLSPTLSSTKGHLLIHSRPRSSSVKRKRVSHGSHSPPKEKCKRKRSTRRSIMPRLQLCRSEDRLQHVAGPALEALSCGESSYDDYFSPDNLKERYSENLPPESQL

[3] = biological target: condensin II pentamer;MCPH1 1-435-MBP (Homo sapiens;Homo sapiens, UniProt O95347;Q9NTJ3;Q6IBW4;P42695;Q86XI2;Q8NEM0 …, |); test: EMSA; condensin II bands shifted upward with MCPH1 1-435-MBP; EMSA with 50 nM 5'-Cy5 50 bp dsDNA; EMSA buffer, salt, pH and temperature not given in the material; conditions: protein: recombinant;recombinant; tags: Strep tag;N-term 6xHis, C-term MBP; copies: 1;1;1;1;1;1; label: 5' Cy5; blunt

Measured: binding result

B1: 50 bp dsDNA (dsDNA)
DNA 1: CTGTCACACCCTGTCACACCCTGTCACACCCTGTCACACCCTGTCACACC
DNA 2: GGTGTGACAGGGTGTGACAGGGTGTGACAGGGTGTGACAGGGTGTGACAG
binds: [1] | [2] | [3]
